Consider 16 sequences from the DeepSol protein solubility set.

The nature of the data set: soluble on expression in E. coli; label from the status in PepcDB or PDB records.
In the case of “MRQNDKIMCILENRKKRDRKNLCRAINDFQQSFQKPETRREFDLSDPLALKKDLPARQSDNDVRNTISGMQKFMGEDLNFHERKKFQEEQNREWSLQQQREWKNARAEQKCAEALYTETRLQFDETAKHLQKLESTTRKAVCASVKDFNKSQAIESVERKKQEKKQEQEDNLAEITNLLRGDLLSENPQQAASSFGPHRVVPDRWKGMTQEQLEQIRLVQKQQIQEKLRLQEEKRQRDLDWDRRRIQGARATLLFERQQWRRQRDLRRALDSSNLSLAKEQHLQKKYMNEVYTNQPTGDYFTQFNTGSR”, the “soluble on expression in E. coli” value is “not soluble”. As for “MNKKILIIDDNKMLGKLLAKKIQMTLDYEVDIAFGFAEAKELMNNDYFLAFVDLCLPDAPNGEVVDYVIEKKIPAIVLTASGDKATKEKFMDKDILDYIFKESETCIDEIISSIVKLNQYAKTKVIVAMSKLPERNEIKKILTQRQFNVLAAAHGEEAMSYLNDNNDVKLIIADVNMPVISGFELLTQVRERFSDDELGVILLGDHNDSFEANSFKNGVNEYLFKPLSKESFNCRLDRCLSYMDDKKFLSTYNVLDPVSGVKNYNALIDGIDDYFNEIATKDEEFAFAFLDIDNLQMINDEYGREVGDEVIKICANEIVNETKGRDLVGRYSAEKICILLKNISQERAIKIFSRIRVNIKKAGVLVNLDEVFFTASIGVVFGKSGDKIDSLADKASKILSQAKDNGKDRVEVCS”, the “soluble on expression in E. coli” value is “soluble”.

As for “MSLVKYGVVGAGYFGAELARYMQKNDGAEITLLYDPDNAEAIAEELGAKVASSLDELVSSDEVDCVIVATPNNLHKEPVIKAAQHGKNVFCEKPIALSYQDCREMVDACKENNVTFMAGHIMNFFNGVHHAKELINQGVIGDVLYCHTARNGWEEQQPSVSWKKIREKSGGHLYHHIHELDCVQFLMGGMPETVTMTGGNVAHEGEHFGDEDDMIFVNMEFSNKRFALLEWGSAYRWGEHYVLIQGSKGAIRLDLFNCKGTLKLDGQESYFLIHESQEEDDDRTRIYHSTEMDGAIAYGKPGKRTPLWLSSVIDKEMRYLHEIMQGAPVSEEFAKLLTGEAALEAIATADACTQSMFEDRKVKLSEIVKEGHHHHHH”, the “soluble on expression in E. coli” value was “soluble”. As for “MSLVYTEVPKSVATFMETITEKCGEAHQDWAKNFQAAFANTLLTTVKRQEDGTTFLLTGDIPAMWLRDSTAQVRPYLVIAKEDEDLAQMIAGLVKRQFRYICIDPYANAFNETDNHAGHQTDKTEMNGWIWERKYEIDSLCYPVQLAYLLYKNTGMTEQFNSDFVEGVKKILNVFTTEQDHAQSPYLFERDTWRQEDTLVEAGKGTPVGKTGMTWSGFRPSDDACQYGYLVPSNMFAVVILGYIQEIFSDVLEDATIGAIAKKLQEEIEEGIQTFGRTKNQNNETIYAYEVDGLGNASVMDDSNVPNLVAAPYLGYCSTEDEQYLTTRQTLLSKENPYFYEGKYAKGIGSSHTPENYVWPIALAMEGMTTKDKAEKERILDLLVATDAGTHLMHEGFDVDNPENYTREWFSWANMMFCELVMDYFDIRVEKEGGSHHHHHH”, the entry is “soluble”; as for “MAAFEAHDYALAERQAQALLAHPATASGARFMLGYVYAFMDRFDEARASFQALQQQAQKSGDHTAEHRALHQVGMVERMAGNWDAARRCFLEERELLASLPEDPLAASANAYEVATVALHFGDLAGARQEYEKSLVYAQQADDQVAIACAFRGLGDLAQQEKNLLEAQQHWLRARDIFAELEDSEAVNELMTRLNGLEHHHHHH”, “not soluble”. In the case of “MSLEEIETDVLVIGGGPGGMSAAINAGKYGAKVLLVDENPFLGGQLVKQTHRFFGSAKERAGTRGIKIAGILEEELNSIENVEVRRETRVFGIYNGEAGAYQRLNDDEGKLLRIKAKKIVVATGAYERTLIFENNDLPGVYGAGGVQTLMNVYGIKPGNMGLIVGSGNVGLILTYQLMQAGVNVAAIVEAMPRIGGYFVHAAKVRRLGVPIYVRHTILKAIGRKSVEGAVIAQLDDRWQPIPGTEKEIKCDFICVAVGLSPTHELLYQAGCEMKFVPELGGIVPLRTRFNETSVKGLYVAGDVAGIEEATAAIMEGRIAGIHAAVTLGYGGEEAKKELDEAVKEIEEFRAGPFGERIVCGLEKCTLESEGHHHHHH” it was “soluble”; in that of “MSLGNAFIALDFETANGKRTSICSVGMVKVVNNEIVESFYTLVNPFDYFSQTNIEVHGITPEDVIDAPSFEYVFPYMMQFIDKLPVVAHNAAFDMNVLHQSLKQLNIETPSMIYFCSYQLAKRTIDAYRYGLKHLMKHYKLDFHGHHDALNDAKACAMITFRLLKHYDNLQSMLQIYGKNLKEGHHHHHH”, “not soluble”; in that of “MPEYKAPLRDMRFLIDEVFDFHGRYQALGASDATPDMVAAILDEGSKFCEQVLAPLNRSGDEEGCHFDNGVVTTPKGFKEAYAQYVEGGWNGVASDPAYGGQGLPHSLGLLLSEMIGASNVSWGMYPGLTRGAMSAIHAHGSQAQKDLYLARMTAGTWTGTMCLTEPHCGTDLGIIKTRAVPNADGSHAISGTKIFISAGEHDLSENIVHLVLAKLPDAPAGTKGISLFIVPKFLPDAEGNVGARNAVSCGSIEHKMGIKASATCVMNFDGATGYLIGEPNKGLHCMFTMMNHARLGTGMQGLCLGETSYQGAVRYARERLQMRSLTGPKAPDKPADPIIVHPDVRRMLLTMKAFNEGNRALAYFTAQLLDTEHLSQDAAERERAADLLAFLTPICKAFMTETGQEVTNLGMQVYGGHGYIREWGMEQLVRDCRIAQIYEGTNGIQALDLLGRKVLGSQGKLLRGFTKLVHQLCQAQAEHPQLKGQVAQLAALNAQWGELTQQVGLAAMKNADEVGAASVDYLMFSGYVTLAYFWLRIALVAREKLDAGSGEAAFYEAKLATADFYFSR”, “not soluble”.

As for “MGSDKIHHHHHHMTHPLLAIDNLSIAFRQQGETQTVVHNLSLEVAVGETLALVGESGSGKSISALSVLRLLPTPPASYPSGDIRFHGQSLLHADEATLRGVRGNRIAMIFQEPMVSLNPLHTLEKQLYEVLSLHRGMRKQAARGEILDCLERVGIRQAPRRLADYPHQLSGGERQRVMIAMALLTRPELLIADEPTTALDVSVQAQILQLLRELKQELNMGLLFITHNLSIVRQLADRVAVMQNGRCVEHNDCRALFSAPAHPYTQRLLDSEPDGEPVPLAADAPVLLQADDLKVAFPVRKGILRRVVDHHRVVNSLSFQLRAGETLGLVGESGSGKSTTGLALLRLIPSGGKITFAGQPIQGRNRRQLLPLRRQMQVVFQDPNSSLNPRLTAQQIIEEGLRVHQPTLTAAEREQAVILAMQEVGLDPASRQRYPAAFSGGQRQRIAIARALIVKPQLIVLDEPTSSLDKTVQAQILNLLKALQRKHQLAYIFISHDLGVVRALCHQVMVLRQGEVVEQGECKSVFSAPRHEYTRQLLALS”, the “soluble on expression in E. coli” value was “not soluble”. In the case of “MTIDTELTNGSSESVPFVFIGGGNMAAAIIKGCQNKGFTPKSNIVIGVQTEKSAEKWRQLGYKNVFTNTLEMLERYSTAIYVICVKPQVFEEVVSSWPVNSRPEFIISVMAGVPLKVLNAKLPFVSGNTTIVRLMPNVASSIGAGASTMCYEKNEKIMNQDSHIELAREFAECVGTVELIPERCFNPAMAIGGSSPAWTFMYIESLADGAVAQGLGRAEAKRLAAQAVLGAAQMVLNSNSGFDIETQHFGSLKDMVCSPGGTTIEGVRALEKNGFRYAVMEAVVAASTKADEMAKSLAK”, the “soluble on expression in E. coli” value was “soluble”. As for “SKFLDVECLSELQRKLNDLELTDYRVRCQLEAYSCKPAGFDKKLSKSLEQKLVEQLEASPRVLEGSPVGSLEDQSARKTLINLICTLNAAHQDYDFSSLQLSRLKRVQDVRSLQQHVDSLFELFYRQLGLEFRQFLWENIGQIIRPEECEVYSYLPDYESDPYSASGALWSFCYFFYHKNMKKILFFSCTLSTRLAEDSESTESVDEEDFGKESSGLETPFAMFETVI”, the entry is “soluble”; as for “MTLLRTTLLSSLLATVVLGASAAPRTEVIPLNYRTADDVMAVAQSVIGSEGKVTAYGNQLIVNAEPAKIRELQSVLQQIDSRPHRLLITVDTSENLQQDSRGYSVDGSASAGNIEIQSGRGEVNGKDRVRIIRRSTDSRSGGSQQVQATEGYPALIQVGQSVPITSTATGPYGQIYSQTEYRNVNRGFYVTATLTGNLVHVTISSSNDRLSQSHPGVIDTQSTDTRVSGKLGEWITLGGVSEQNQADQRGFVRRYSTQGRDDTSLRLKVETLDLEHHHHHH”, “not soluble”; as for “MMAYSDTTMMSDDIDWLRSHRGVCKVDLYNPEGQQDQDRKVICFVDVSTLNVEDKDYKDAASSSSEGNLNLGSLEEKEIIVIKDTEKKDQSKTEGSVCLFKQAPSDPVSVLNWLLSDLQKYALGFQHALSPSTSTCKHKVGDTEGEYHRASSENCYSVYADQVNIDYLMNRPQNLRLEMTAAKNTNNNQSPSAPPAKPPSTQRAVISPDGECSIDDLSFYVNRLSSLVIQMAHKEIKEKLEGKSKCLHHSICPSPGNKERISPRTPASKIASEMAYEAVELTAAEMRGTGEESREGGQKSFLYSELSNKSKSGDKQMSQRESKEFADSISKGLMVYANQVASDMMVSLMKTLKVHSSGKPIPASVVLKRVLLRHTKEIVSDLIDSCMKNLHNITGVLMTDSDFVSAVKRNLFNQWKQNATDIMEAMLKRLVSALIGEEKETKSQSLSYASLKAGSHDPKCRNQSLEFSTMKAEMKERDKGKMKSDPCKSLTSAEKVGEHILKEGLTIWNQKQGNSCKVATKACSNKDEKGEKINASTDSLAKDLIVSALKLIQYHLTQQTKGKDTCEEDCPGSTMGYMAQSTQYEKCGGGQSAKALSVKQLESHRAPGPSTCQKENQHLDSQKMDMSNIVLMLIQKLLNENPFKCEDPCEGENKCSEPRASKAASMSNRSDKAEEQCQEHQELDCTSGMKQANGQFIDKLVESVMKLCLIMAKYSNDGAALAELEEQAASANKPNFRGTRCIHSGAMPQNYQDSLGHEVIVNNQCSTNSLQKQLQAVLQWIAASQFNVPMLYFMGDKDGQLEKLPQVSAKAAEKGYSVGGLLQEVMKFAKERQPDEAVGKVARKQLLDWLLANL”, “not soluble”. In the case of “GSRVALVTGANRGIGLAIARELCRQFSGDVVLTARDVARGQAAVQQLQAEGLSPRFHQLDIDDLQSIRALRDFLRKEYGGLNVLVNNAAVAFKSDDPMPFDIKAEMTLKTNFFATRNMCNELLPIMKPHGRVVNISSLQCLRAFENCSEDLQERFHSETLTEGDLVDLMKKFVEDTKNEVHEREGWPNSPYGVSKLGVTVLSRILARRLDEKRKADRILVNACCPGPVKTDMDGKDSIRTVEEGAETPVYLALLPPDATEPQGQLVHDKVVQNW” it was “soluble”; in that of “MKRNGETKRRRNVAEEAEQGEDPAMWENLDRNFRQVQSVLDRNRSLIQQVNDNHQSRMADNMSKNVALIQELNGNISKVVNMYSDLNTSFSSGFHGGKNGHDGGGAAGTRA”, “soluble”. As to “MNITQAAEQAIRLWFNTPDPMQRLHMAKTIRTWIRQDKFAQVDQANMPNCVQQILNIIYDGLKPQPVQLPISYYAQLWYNLLDILRRFTFLPIISPYIHQVVQMFCPRENGPQDFRELICNLISLNWQKDPHMKHCANQVFQIFNCIIMGVKNEKLRTEFAQHLKFEKLVGTLSEYFNPQVHPGMINPAIFIIFRFIISKDTRLKDYFIWNNNPHDQPPPPTGLIIKLNAVMIGSYRLIAGQNPETLPQNPELAHLIQVIIRTFDLLGLLLHDSDAIDGFVRSDGVGAITTVVQYPNNDLIRAGCKLLLQVSDAKALAKTPLENILPFLLRLIEIHPDDEVIYSGTGFLSNVVAHKQHVKDIAIRSNAIFLLHTIISKYPRLDELTDAPKRNRVCEIICNCLRTLNNFLMMWIPTPNGETKTAGPNEKQQVCKFIEIDILKKLMSCLSCEGMDTPGLLELRSTILRSFILLLRTPFVPKDGVLNVIDENRKENLIGHICAAYSWVFRQPNNTRTQSTKQQLVERTISLLLVLMEQCGAEKEVAQYSYSIDCPLNLLNGNQVKPTFIHNVLVVCDKILEHCPTRADIWTIDRPMLEGLTNHRNSDIAKAANSLLSRFPEN”, the “soluble on expression in E. coli” value is listed as “soluble”.
